# From article PMC10624894 (Nature Communications, 2023)
# B1: Nb^643 (VHH)
# VHH: QVQLVESGGGLVQPGGSLRLSCAASGIAFSRNAVGWYRQAPGKQRELVARSNTVGATNYADSVKGRFTISRDNDKSTVYLQMNSLKPEDTAVYYCNIYLYGDRTGSTLNSWGQGTQVTVSS
# notes: also called nanobody 643; source: E. coli WK6, periplasmic expression, purified (SEC as the final step)
# B2: Nb^633 (VHH)
# VHH: QVQLVESGGGLVQAGASLRLSCAASGRTFSSYAMGWFRQAPGKEREFVAAISPLGQTTYYTDSVKGRFTISRDNAKNTLYLQMNSLKPEDTAVYYCAQGSLSEVRLGKSTYWGQGTQVTVSS
# notes: also called nanobody 633; source: E. coli WK6, periplasmic expression, purified (SEC as the final step)
# B3: Nb^632 (VHH)
# VHH: QVQLVESGGGLVQAGGSLRLSCVASGGTFSNYGMGWFRQAPGKEREFVAAVRWSGDSTYYSDSVKGRFTISRDNAKNTVYLQMNGLKPEDTAVYYCARRLNWRFISNWDKESEYAYWGQGTQVTVSS
# notes: also called nanobody 632; source: E. coli WK6, periplasmic expression, purified (SEC as the final step)
# Molecular target: EA1ΔD6 (Bacillus anthracis (strain 7702), UniProt P94217, biotin (EZ-Link NHS-PEG4-Biotin) in the BLI experiment only)
# Experiment: BLI; […] (3 µg/ml) […]; room temperature; […]
# Conditions: both partners purified
row,Binder,Kd [nM]
1,B1,1.9
2,B2,13
3,B3,2.2
